Km and kcat data for one protein are collected here from paper PMC4859490, “Why p-OMe- and p-Cl-β-Methylphenethylamines Display Distinct Activities upon MAO-B Binding” (PLoS ONE, 2016).

Substrate in this data set: COc1ccc(C(C)CN)cc1
The data set can be described thus: purified protein. The data set is classed as biochemical, Homo sapiens. The settings on record: FAD substrate binding site (modelled: aromatic cage facing FAD, Tyr398/Tyr435; methoxyl oxygen near Cys172).

B1: MAO-B (Homo sapiens) (protein)
chain: SNKCDVVVVGGGISGMAAAKLLHDSGLNVVVLEARDRVGGRTYTLRNQKVKYVDLGGSYVGPTQNRILRLAKELGLETYKVNEVERLIHHVKGKSYPFRGPFPPVWNPITYLDHNNFWRTMDDMGREIPSDAPWKAPLAEEWDNMTMKELLDKLCWTESAKQLATLFVNLCVTAETHEVSALWFLWYVKQCGGTTRIISTTNGGQERKFVGGSGQVSERIMDLLGDRVKLERPVIYIDQTRENVLVETLNHEMYEAKYVISAIPPTLGMKIHFNPPLPMMRNQMITRVPLGSVIKCIVYYKEPFWRKKDYCGTMIIDGEEAPVAYTLDDTKPEGNYAAIMGFILAHKARKLARLTKEERLKKLCELYAKVLGSLEALEPVHYEEKNWCEEQYSGGCYTTYFPPGILTQYGRVLRQPVDRIYFAGTETATHWSGYMEGAVEAGERAAREILHAMGKIPEDEIWQSEPESVDVPAQPITTTFLERHLPSVPGLLRLIGLTTIFSATALGFLAHKRGLLVRV
On to B1, for which the Km (usually the concentration of substrate that gives half-maximal velocity) amounted to 87 ± 8 µM; the kcat (as a rule, the number of substrate molecules converted per active site and unit of time at saturation) was 0.233 ± 0.0167 s⁻¹.
